Results reported in the supplement of paper PMC12667976.

B1: library; numbered along this chain (parent)
chain: MATDAALRRLLRLHRTEIAVAVDSAFPLLHALADHDVVPEDKFQETLHLKEKEGCPQAFHALLSWLLTQDSTAILDFWRVLFKDYNLERYGRLQPILDSFPKDVDLSQPRKGRKPPAVPKALVPPPRLPTKRKASEEARAAAPAALTPRGTASPGSQLKAKPPKKPESSAEQQRLPLGNGIQTMSASVQRAVAMSSGDVPGARGAVEGILIQQVFESGGSKKCIQVGGEFYTPSKFEDSGSGKNKARSSSGPKPLVRAKGAQGAAPGGGEARLGQQGSVPAPLALPSDPQLHQKNEDECAVCRDGGELICCDGCPRAFHLACLSPPLREIPSGTWRCSSCLQATVQEVQPRAEEPRPQEPPVETPLPPGLRSAGEEVRGPPGEPLAGMDTTLVYKHLPAPPSAAPLPGLDSSALHPLLCVGPEGQQNLAPGARCGVCGDGTDVLRCTHCAAAFHWRCHFPAGTSRPGTGLRCRSCSGDVTPAPVEGVLAPSPARLAPGPAKDDTASHEPALHRDDLESLLSEHTFDGILQWAIQSMARPAAPFPS

Variants of: B1
Test: AIRE transcriptional activation functional score (insulin promoter-GFP; nonsense median 0, synonymous median 1) (normalised score); higher = higher AIRE activity (more reporter activation)
Settings: with insulin promoter-GFP reporter in HEK293
Summary of the method: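 Codon-optimized AIRE NNN-codon libraries (three regions) were integrated by Bxb1 recombinase into Flp-In T-REx HEK293 landing-pad cells carrying an insulin core promoter-GFP reporter. Integrants (mCherry+, BFP−) sorted at day 7 were expanded 7 days; top 10% GFP and unselected integrant populations were tile-sequenced. Functional score is select versus non-select variant enrichment, wild-type subtracted. Variants needed 10 counts per million in non-select; scores were rescaled to nonsense median 0 and synonymous median 1, then averaged over biological replicates.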

AIRE transcriptional activation functional score: each site, then its substitutions
E353: N 0.963; K 1.17; D 0.963; I 1.13; H 0.837; C 1.2; G 0.959; P 1.12; A 1.07; M 1.19; R 1.14; W 1.17; S 1.14; Y 1.42; V 1.15; F 1.25; Q 1.18; T 1.19; L 1.18
V348: K 0.974; W 1.37; N 1.08; T 1.04; E 0.956; Y 0.929; P 0.929; G 1.04; D 1.01; F 1; Q 0.65; I 1.08; M 0.509; R 1.19; A 1.1; S 0.865; L 1.09; H 1.33; C 0.781
R356: H 0.935; D 1.05; P 0.873; K 0.935; N 1.01; W 0.964; T 0.752; C 1.05; E 1.09; S 0.974; G 1.06; Q 0.912; L 0.928; M 1.16; I 1.03; A 0.824; V 0.975; F 1.15; Y 1.03
P357: E 1.05; M 1.29; W 1.17; T 1.1; H 0.925; F 1.27; N 1.32; L 1.2; Y 1.34; I 1.11; S 0.935; G 0.884; C 1.23; V 0.974; D 0.863; A 1.01; Q 1.06; K 0.713; R 1.07
Q346: M 1.29; W 1.73; C 0.884; E 1.18; L 1.2; G 1.13; D 1.46; I 1.01; K 0.899; S 1.06; A 0.913; P 1.12; N 0.737; H 1.3; F 0.819; R 1.03; Y 0.906; V 0.378; T 1.02
E347: L 1.16; I 1.15; V 0.892; S 1.12; M 1.06; P 1.14; G 1.17; Q 0.943; D 1.21; K 1.11; H 1.32; Y 1.43; T 1.26; F 1.28; W 1.24; C 1.15; A 1; R 1.23; N 0.719
C340: Y 0.989
Q342: F 1.08; D 0.916; T 0.546; S 1.13; W 1.73; M 1.09; E 0.971; N 0.925; C 1.09; K 1.04; L 0.929; I 1; R 0.876; P 0.83; A 0.362; H 0.916; Y 1.06; G 0.963; V 0.754
V345: C 1.04; M 1.28; S 0.912; P 1.06; N 0.989; E 0.982; L 1.03; A 0.719; K 1.22; H 0.756; Y 1.02; I 0.913; F 1.36; T 1.24; G 1.12; Q 0.581; D 1.02; R 1.14; W 1.52
P350: N 1.37; A 1.13; C 0.761; W 1.02; G 1.14; R 1.18; Q 0.912; D 1.09; S 0.947; M 1.11; T 0.866; H 1.47; F 1.25; I 1.14; V 1.01; K 0.93; Y 0.767; E 1.04; L 1.17
A343: K 0.609; C 0.944; N 0.601; G 0.94; W 1.93; V 1.03; T 1.13; P 0.957; S 0.938; L 1.38; I 1.36; Q 0.485; H 1.02; F 1.38; E 0.95; Y 1.09; M 1.59; D 1.18; R 0.816
L341: C 1.24; K 0.983; D 0.832; P 0.971; V 0.917; W 1.32; E 0.957; N 1.02; M 0.759; T 1.03; A 0.936; Y 0.945; R 1.16; I 1.21; G 1.11; F 1.01; Q 1.08; H 0.986; S 0.767
R351: T 0.615; S 1.01; N 1.56; L 0.985; M 1.07; H 0.73; E 0.835; F 1.16; D 0.673; C 1.19; V 0.812; P 1.02; G 1.02; W 0.833; K 0.457; Y 0.693; I 0.573; A 1.34; Q 1.44
P355: K 1.2; R 1.04; W 1.32; E 0.969; M 0.914; S 0.93; Q 1.24; C 1.05; I 1.01; L 1.11; F 1; H 1.08; D 1.13; T 1.09; Y 1.49; V 1; A 0.981; N 1.11; G 1.06
A352: W 1.31; D 1.08; I 1.08; C 1.1; S 1; F 1.38; T 1.32; Q 0.697; V 0.882; Y 0.899; G 0.813; R 0.916; E 0.933; K 0.997; P 0.925; M 1.13; L 1.06; H 0.902; N 1.01
T344: I 0.748; R 1.08; K 1.16; D 0.882; Q 1.12; G 1.16; M 1.37; N 0.983; V 0.896; A 0.851; L 0.939; S 1.06; H 1.29; P 1.07; Y 0.912; W 1.1; E 0.714; C 1.26; F 1.26
Q358: K 1.02; H 1.12; F 1.16; C 0.97; A 0.941; D 0.761; G 1.34; I 1.1; L 1.14; E 1.19
E354: V 1.08; N 0.818; I 1.13; A 0.949; G 1.13; D 1.22; Y 1.38; T 0.99; P 0.835; K 0.669; L 1.05; W 1.16; C 1.16; S 0.901; Q 0.948; R 1.14; F 1.33; M 1.47; H 1.1
Q349: N 0.61; R 0.95; T 1.12; K 1.06; D 0.985; W 1.55; M 0.852; F 0.896; E 1.04; V 1.13; P 0.847; G 1.14; C 1.1; Y 1.08; S 1.26; A 0.994; H 0.951; L 1.1; I 1.05
